Source: the Human Domainome abundance scans (Beltran et al. 2025)
± gives the uncertainty stated by the source.

B1: Retinoic acid receptor beta, residues 85 to 161; numbered along this chain, P10826 (parent)
chain: YKPCFVCQDKSSGYHYGVSACEGCKGFFRRSIQKNMIYTCHRDKNCVINKVTRNRCQYCRLQKCFEVGMSKESVRND
B2: Dynamin-binding protein, residues 242 to 304; numbered along this chain, Q6XZF7 (parent)
chain: EEPGTYGVALYRFQALEPNELDFEVGDKIRILATLEDGWLEGSLKGRTGIFPYRFVKLCPDTR

Variants of: B1
Assay: abundance fitness (aPCA) (normalised: wild type 0, dead -1); higher = more abundant; growth selection in yeast, the domain comes from the species named
Conditions: Homo sapiens

Abundance fitness of substitutions, site by site:
V74: K -0.219 ± 0.065 | H -0.13 ± 0.15 | F -0.064 ± 0.081 | Y -0.297 ± 0.12 | W -0.14 ± 0.052 | C 0.003 ± 0.064 | D 0.094 ± 0.072 | N -0.067 ± 0.086 | Q -0.012 ± 0.066 | R -0.188 ± 0.043 | G -0.081 ± 0.041 | P -0.068 ± 0.078 | I 0.036 ± 0.062 | M -0.027 ± 0.059 | L -0.018 ± 0.041 | S -0.035 ± 0.048 | T -0.012 ± 0.064
R75: F -0.187 ± 0.12 | Q 0.163 ± 0.095 | V 0.046 ± 0.042 | L 0.102 ± 0.04 | G 0.09 ± 0.034 | Y 0.118 ± 0.077 | S -0.045 ± 0.055 | D -0.051 ± 0.078 | N 0.073 ± 0.092 | W 0.065 ± 0.043 | K -0.018 ± 0.065 | T -0.02 ± 0.06 | A 0.137 ± 0.044 | H 0.078 ± 0.11 | E 0.124 ± 0.045 | C 0.175 ± 0.065 | P 0.039 ± 0.073
N76: M -0.061 ± 0.082 | V 0.047 ± 0.054 | A 0.084 ± 0.054 | P 0.146 ± 0.066 | Q 0.058 ± 0.1 | E 0.194 ± 0.061 | S 0.148 ± 0.053 | D 0.018 ± 0.079 | G -0.048 ± 0.049 | K 0.01 ± 0.058 | T -0.15 ± 0.088 | C -0.105 ± 0.079 | Y 0.046 ± 0.1 | R -0.039 ± 0.046 | L 0.013 ± 0.054 | I -0.149 ± 0.13 | F -0.012 ± 0.11 | H -0.144 ± 0.21
S73: D 0.133 ± 0.056 | E 0.091 ± 0.046 | W -0.091 ± 0.046 | P 0.002 ± 0.068 | R 0.016 ± 0.034 | F -0.016 ± 0.086 | Y -0.231 ± 0.092 | T -0.106 ± 0.065 | L 0.088 ± 0.04 | K 0.131 ± 0.052 | Q -0.043 ± 0.057 | V 0.001 ± 0.042 | H -0.061 ± 0.1 | M 0.092 ± 0.055 | G 0.017 ± 0.034
D77: V -0.054 ± 0.057 | P 0.096 ± 0.073 | E 0.125 ± 0.073 | L -0.202 ± 0.073 | F -0.183 ± 0.32 | R -0.194 ± 0.053 | N -0.333 ± 0.1 | Q 0.066 ± 0.12 | I -0.06 ± 0.11 | Y 0.044 ± 0.1 | H 0.087 ± 0.16 | M 0.007 ± 0.084 | A -0.126 ± 0.063 | T -0.348 ± 0.12 | K -0.082 ± 0.14 | S -0.093 ± 0.065 | W -0.347 ± 0.086

Variants of: B2
Assay: as above
Conditions: Homo sapiens

Abundance fitness, by site and new letter:
A9: Q -0.821 ± 0.44 | R -0.816 ± 0.11 | K -0.824 ± 0.26 | E -0.73 ± 0.41 | D -1.01 ± 0.16 | C -0.771 ± 0.096 | I -0.737 ± 0.097 | L -0.662 ± 0.1 | S -0.566 ± 0.067 | G -0.443 ± 0.072 | H -0.967 ± 0.16 | Y -0.578 ± 0.078 | P -0.752 ± 0.17 | V -0.853 ± 0.1 | W -0.6 ± 0.22 | T -0.623 ± 0.15 | N -0.812 ± 0.14
V8: G -0.779 ± 0.092 | S -0.701 ± 0.096 | F -0.373 ± 0.075 | T -0.047 ± 0.076 | L -0.192 ± 0.069 | Y -0.028 ± 0.066 | A -0.691 ± 0.13 | I 0.064 ± 0.061 | C -0.531 ± 0.099 | Q -0.449 ± 0.35 | D -0.717 ± 0.15 | R -0.302 ± 0.086 | P -0.865 ± 0.2 | E -0.206 ± 0.15 | K -0.427 ± 0.17 | H -0.321 ± 0.11 | N -0.681 ± 0.12 | W -0.738 ± 0.2
E2: T -0.024 ± 0.076 | G -0.166 ± 0.054 | K -0.512 ± 0.22 | W 0.044 ± 0.29 | M -0.049 ± 0.15 | H 0.127 ± 0.069 | Y 0.015 ± 0.056 | V -0.228 ± 0.058 | L -0.011 ± 0.066 | A -0.586 ± 0.099 | Q -0.498 ± 0.19 | S -0.567 ± 0.087 | N 0.016 ± 0.068 | R -0.321 ± 0.085 | I -0.013 ± 0.072 | D -0.151 ± 0.066 | C -0.367 ± 0.082
G7: A 0.36 ± 0.056 | P -0.86 ± 0.25 | R -0.781 ± 0.1 | S -0.292 ± 0.051 | V 0.006 ± 0.049 | Q -0.258 ± 0.22 | C 0.231 ± 0.045 | E -0.209 ± 0.18 | W -1.27 ± 0.41 | N -0.719 ± 0.11 | F -0.734 ± 0.092 | D -0.857 ± 0.14 | Y -0.661 ± 0.1
G4: M 0.283 ± 0.28 | L -0.05 ± 0.064 | H 0.131 ± 0.066 | Y -0.044 ± 0.059 | Q 0.059 ± 0.15 | W -0.312 ± 0.16 | V 0.008 ± 0.052 | C -0.135 ± 0.057 | F 0.009 ± 0.051 | D -0.004 ± 0.064 | E 0.622 ± 0.14 | T 0.103 ± 0.077 | K -0.211 ± 0.15 | P 0.214 ± 0.11 | R -0.187 ± 0.059 | A -0.095 ± 0.059 | N -0.032 ± 0.058 | I 0.078 ± 0.064
F13: M -0.072 ± 0.11 | Y 0.213 ± 0.047 | P -0.644 ± 0.14 | D -0.585 ± 0.086 | T -0.831 ± 0.15 | N -0.023 ± 0.057 | S -0.534 ± 0.063 | A -0.804 ± 0.16 | K -0.207 ± 0.15 | W -0.483 ± 0.23 | G -0.677 ± 0.085 | V -0.71 ± 0.076 | R 0.11 ± 0.06 | H 0.559 ± 0.059 | Q -0.212 ± 0.2 | L -0.74 ± 0.11
Q14: H -0.032 ± 0.074 | R -0.2 ± 0.061 | Y -0.172 ± 0.066 | C -0.268 ± 0.067 | S -0.321 ± 0.056 | I -0.188 ± 0.057 | V -0.115 ± 0.054 | D -0.264 ± 0.064 | T -0.109 ± 0.063 | K -0.205 ± 0.13 | L -0.265 ± 0.07 | E -0.131 ± 0.13 | G -0.696 ± 0.077 | F -0.413 ± 0.075 | W -0.572 ± 0.18 | N -0.198 ± 0.065
L16: D 0.047 ± 0.063 | E -0.027 ± 0.22 | C 0.09 ± 0.054 | A 0.187 ± 0.064
P3: K 0.18 ± 0.16 | S 0.008 ± 0.053 | H 0.088 ± 0.066 | L 0.108 ± 0.071 | V -0.169 ± 0.068 | M 0.207 ± 0.15 | Y 0.053 ± 0.07 | E -0.033 ± 0.35 | A -0.337 ± 0.1 | T 0.126 ± 0.075 | W -0.19 ± 0.29 | I 0.273 ± 0.073 | R -0.114 ± 0.059 | G -0.222 ± 0.08 | C -0.221 ± 0.077 | Q -0.026 ± 0.14 | F 0.059 ± 0.082
Y11: G -0.429 ± 0.067 | N -0.137 ± 0.057 | S -0.196 ± 0.045 | T 0.044 ± 0.06 | M -0.024 ± 0.11 | V -0.086 ± 0.049 | Q 0.026 ± 0.21 | K 0.343 ± 0.11 | A 0.217 ± 0.061 | D -0.281 ± 0.067 | F 0.01 ± 0.048 | P -0.784 ± 0.16 | C -0.124 ± 0.061 | E -0.02 ± 0.1 | L -0.084 ± 0.056 | R 0.206 ± 0.058 | H 0.022 ± 0.067 | I -0.14 ± 0.055
E1: L -0.041 ± 0.087 | N -0.337 ± 0.087 | K 0.009 ± 0.14 | H -0.8 ± 0.18 | G -0.163 ± 0.067 | S -0.112 ± 0.068 | D -0.369 ± 0.081 | T -0.111 ± 0.1 | F -0.277 ± 0.11 | V -0.001 ± 0.052 | A -0.512 ± 0.13 | M -0.02 ± 0.17 | I 0.005 ± 0.077 | Y -0.23 ± 0.083 | C -0.189 ± 0.11 | R -0.063 ± 0.12
L10: V -0.252 ± 0.054 | D -0.679 ± 0.11 | P -0.7 ± 0.15 | Q -0.564 ± 0.21 | K -0.384 ± 0.21 | G -0.743 ± 0.098 | S -0.457 ± 0.065 | A -0.761 ± 0.14 | N -0.827 ± 0.11 | M 0.048 ± 0.094 | W -0.397 ± 0.15 | C -0.477 ± 0.073 | H -0.566 ± 0.12 | F -0.873 ± 0.12 | I 0.028 ± 0.059 | E -0.655 ± 0.25
Y6: I -0.123 ± 0.053 | F 0.071 ± 0.048 | G -0.696 ± 0.079 | L -0.309 ± 0.066 | H -0.498 ± 0.1 | R -0.712 ± 0.1 | S -0.672 ± 0.073 | D -0.754 ± 0.11 | W -0.498 ± 0.27 | T -0.45 ± 0.094 | K -0.653 ± 0.2 | N -0.785 ± 0.095 | C -0.502 ± 0.083 | E -0.718 ± 0.2 | M -0.394 ± 0.16 | Q -0.927 ± 0.31 | V -0.135 ± 0.052
T5: W -0.132 ± 0.13 | Q 0 ± 0.16 | I -0.183 ± 0.065 | N -0.3 ± 0.081 | L 0.052 ± 0.059 | F -0.057 ± 0.058 | D -0.587 ± 0.099 | K -0.253 ± 0.16 | C -0.143 ± 0.059 | G -0.765 ± 0.093 | S -0.282 ± 0.055 | A -0.083 ± 0.066 | Y -0.214 ± 0.066 | E -0.61 ± 0.17 | R -0.225 ± 0.072
R12: N 0.009 ± 0.062 | C -0.477 ± 0.08 | L -0.637 ± 0.093 | I -0.737 ± 0.1 | Q -0.821 ± 0.35 | P -0.126 ± 0.1 | A 0.177 ± 0.06 | E -0.469 ± 0.21 | T -0.237 ± 0.085 | G -0.071 ± 0.051 | V -0.508 ± 0.075 | M -0.589 ± 0.25 | Y -0.834 ± 0.12 | F -0.91 ± 0.13 | S -0.12 ± 0.051 | H -0.446 ± 0.11 | K -0.276 ± 0.17
A15: L -0.626 ± 0.11 | Y -0.774 ± 0.11 | V -0.608 ± 0.11 | F -0.982 ± 0.15 | E -0.734 ± 0.26 | Q -0.787 ± 0.35 | N -0.588 ± 0.11 | W -0.637 ± 0.23 | T 0.06 ± 0.072 | M -0.639 ± 0.31 | G 0.019 ± 0.055 | P -0.355 ± 0.12 | S 0.131 ± 0.048 | H -0.472 ± 0.13 | C -0.617 ± 0.076
